Measurements reported in paper PMC5825201 (mAbs, 2018).

Target: endogenous human tissue factor on MDA-MB-231 breast cancer cells (Homo sapiens (MDA-MB-231 cells), UniProt P13726)
Assay: flow cytometry on cells

Sequence of endogenous human tissue factor on MDA-MB-231 breast cancer cells (P13726 33-295): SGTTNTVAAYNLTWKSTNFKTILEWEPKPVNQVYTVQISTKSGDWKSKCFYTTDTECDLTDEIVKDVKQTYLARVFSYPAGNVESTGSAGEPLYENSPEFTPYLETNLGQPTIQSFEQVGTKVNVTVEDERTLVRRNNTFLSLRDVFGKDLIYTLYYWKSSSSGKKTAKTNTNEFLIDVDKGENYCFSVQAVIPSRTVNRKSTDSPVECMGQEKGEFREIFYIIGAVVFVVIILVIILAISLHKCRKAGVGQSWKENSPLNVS

B1: chimeric mouse/human version of 10H10 mAb (antibody, V domains shown)
VH: QVHLQQSGAELMKPGASVKISCKASGYTFITYWIEWVKQRPGHGLEWIGDILPGSGSTNYNENFKGKATFTADSSSNTAYMQLSSLTSEDSAVYYCARSGYYGNSGFAYWGQGTLVTVSA
VL: DIVMTQSPSSLTVTAGEKVTMSCKSSQSLLSSGNQKNYLTWYQQIPGQPPKLLIYWASTRESGVPDRFTGSGSGTDFTLTINSVQAEDLAVYYCQNDYTYPLTFGAGTKLELK
  cell binding (% to 10H10): 100%
